Experimental findings from patent US20240166738A1 (priority 2021, published 2024) are described below.

The target in the test is GST-TMEM106B (truncated, comprising amino acids 122-210 of SEQ ID NO:1) (Homo sapiens, UniProt Q9NUM4). Nature of the test: Pre-mix epitope binning of anti-TMEM106B antibodies (Carterra / Lake Pharma). It is filed as binding. Details: key to epitope bin: Bin 1: competes for binding to the same or overlapping TMEM106B region as the TM1, TM17, TM22, TM26, TM79, and/or TM82 antibodies; Bin 2: competes for binding to the same or overlapping TMEM106B region as the TM3, TM9, TM10, TM11, TM12, TM13, TM18, TM19, TM21, TM24, TM25, TM32, TM35, TM37, TM42, TM45, TM48, TM54, TM59, TM60, TM61, and/or TM76 antibodies; Bin 3: competes for binding to the same or overlapping TMEM106B region as the TM7, TM15, TM83, and/or TM84 antibodies; Bin 4: competes for binding to the same or overlapping TMEM106B region as the TMS, TM28, TM29, TM30, TM63, TM64, TM72, TM78, TM80, TM86, and/or TM88 antibodies; Bin 5: does not bind to a truncated TMEM106B comprising amino acids 122-210 of SEQ ID NO:1. The settings on record: for epitope bin: competition for binding to truncated GST-TMEM106B (amino acids 122-210); for Binding Community/Bin: epitope bin number, pre-mix binning on truncated GST-TMEM106B.
Chain of GST-TMEM106B (truncated, comprising amino acids 122-210 of SEQ ID NO:1) (Q9NUM4 122-210): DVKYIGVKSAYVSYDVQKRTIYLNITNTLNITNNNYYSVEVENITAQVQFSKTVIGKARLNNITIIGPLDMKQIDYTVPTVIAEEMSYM

B1: TM-72: anti-TMEM106B monoclonal antibody; VH SEQ ID NO: 477, VL SEQ ID NO: 512 (antibody, V domains shown)
VH: QVQLQQPGAELVKPGTSVKLSCKASGSTFTNYWMHWVMQRPGQGLEWIGNIDPSDSDTHYNQKFKDRAKLTVDKSSSTAYMQLSGLTSEDSAVYYCARSRGGYYDYGEAMDYWGQGTSVTVSS
VL: DIVMTQAAPSVPVTPGESVSISCRSSKSLLHTNGNTYLFWFIQRPGQSPHLLIYRKSNLASGVPDRFSGSGSGTAFTLRISRVEAEDVGVYYCMQHLEYPFTFGSGTKLEIK
modifications: Variable Heavy Chain -- TM-72; Variable Light Chain -- TM-71, TM-72
As for B1, the epitope bin entry is reported as “Bin 4” and the “Binding Community/Bin” value worked out at 4.

B2: TM-63: anti-TMEM106B monoclonal antibody; VH SEQ ID NO: 469, VL SEQ ID NO: 505 (antibody, V domains shown)
VH: QVQLQQPGAELVKFGASVKLSCKASGYTFTSFWMHWVKQRPGQGLEWIGNIDPSDSETHYSQKFKDKATLTVDRSSNTAYIQLSSLTSEDSAVYYCARSSNWDNFDYWGQGTTVTVSS
VL: DIVMTQASPSVSVTPGESVSISCRSSQSLLHVNGNTYLYWFLQRPGRSPRLLIYRMSNLASGVPDRFSGSGSGTAFTLRISRVEAEDVGVYYCMQHLQYPFSFGSGTKLEMK
modifications: Variable Heavy Chain -- TM-63; Variable Light Chain -- TM-63
Take B2: the epitope bin entry was “Bin 4” and the “Binding Community/Bin” value is listed as 4.

B3: TM-80: anti-TMEM106B monoclonal antibody; VH SEQ ID NO: 485, VL SEQ ID NO: 520 (antibody, V domains shown)
VH: QVQLQQPGAELVKPGASVKLSCKASGYTFTTFWMHWVKQRPGQGLEWIGNIDPSDSETHYNQEFKDKATLTVDRSSNTAYMQLSSLTSEDSAVYYCARSSNWDNFDYWGQGTAVTVSS
VL: DIVMTQAAPSVPVTPGESVSISCRSSQSLLHVNGHTYLYWFLQRPGQSPQLLIYRMSNLASGVPDRFSGSGSGTVFTLRISRVETEDVGIYYCMQHLQYPFTFGSGTKLEIK
modifications: Variable Heavy Chain -- TM-80; Variable Light Chain -- TM-80
As to B3, the epitope bin result is recorded as “Bin 4” and the “Binding Community/Bin” value worked out at 4.

B4: TM-78: anti-TMEM106B monoclonal antibody; VH SEQ ID NO: 483, VL SEQ ID NO: 518 (antibody, V domains shown)
VH: QVQLQQPGAELVKPGASVKLSCKASGYTFTNHWMHWVRQRPGQGLEWIGNIDPSDSDTHYNHKFKDKATLIVDKSSSTAYLQLSSLTSEDSAVFYCARSRGGYYDYGEAMDYWGQGTSVTVSS
VL: DIVMTQATPSIPVTPGESVSISCRSSKSLLHVNGNTYLFWFLQRPGQSPQLLIYRMSNLASGVPDRFSGSGSGTAFTLRISRVEAEDVGVYYCMQHLEYPFTFGSGTKLEIK
modifications: Variable Heavy Chain -- TM-78; Variable Light Chain -- TM-78
Take B4: the epitope bin entry is “Bin 4” and the “Binding Community/Bin” value was determined as 4.

B5: TM-64: anti-TMEM106B monoclonal antibody; VH SEQ ID NO: 470, VL SEQ ID NO: 506 (antibody, V domains shown)
VH: QVQLQQPGAELVKPGASVKLSCKASGYTFTSYWMHWVKQRPGHGLEWIGNIDPSDSDTHYNQNFRGKATLTVDKFSTTAYMHLSSLTSEDSAVYYCARSRGGTYDYGEAMDYWGQGTSVTVSS
VL: DIVMTQAAPSVPVTPGESVSISCRSSKSLLHTNGNTYLFWFLQRPGRSPQLLIYRMSNLASGVPDRFSGSGSGTAFTLRISRVEAEDVGVYYCMQHLEYPFTFGSGTKLEIK
modifications: Variable Heavy Chain -- TM-64; Variable Light Chain -- TM-64
Turning to B5, the epitope bin entry is “Bin 4” and the “Binding Community/Bin” value is given as 4.
